From WO1995033832A1

What was measured:
[1] = biological target: recombinant Hepatitis B virus surface antigen (HBsAg) (Hepatitis B virus); experiment: immunoaffinity column, scFv on Sepharose CL-4B; Expt. 5, crude semipurified HBsAg, 2 mg loaded
[2] = biological target: recombinant Hepatitis B virus surface antigen (HBsAg) (Hepatitis B virus); experiment: immunoaffinity column, scFv on Sepharose CL-4B; Expt. 3, pure HBsAg, 2 mg loaded
[3] = biological target: recombinant Hepatitis B virus surface antigen (HBsAg) (Hepatitis B virus); experiment: ELISA; scFv preincubated with HBsAg in solution, molar ratio fragment:antigen 1:3.5; inhibition of binding to coated HBsAg
[4] = biological target: recombinant Hepatitis B virus surface antigen (HBsAg) (Hepatitis B virus); experiment: ELISA, plates coated with recombinant HBsAg 5 ug/ml; renatured and IMAC-purified scFv; detected with rabbit anti-Fab and Protein A-HRP
[5] = biological target: recombinant Hepatitis B virus surface antigen (HBsAg) (Hepatitis B virus); experiment: ELISA on coated recombinant HBsAg
[6] = biological target: recombinant Hepatitis B virus surface antigen (HBsAg) (Hepatitis B virus); experiment: scFv on Sepharose CL-4B; saturating pure HBsAg applied, eluted with 3 M KSCN (gel without ligand: 0.012 mg)
[7] = biological target: recombinant Hepatitis B virus surface antigen (HBsAg) (Hepatitis B virus); experiment: immunoaffinity column, scFv on Sepharose CL-4B; Expt. 2, pure HBsAg, 2 mg loaded
[8] = biological target: recombinant Hepatitis B virus surface antigen (HBsAg) (Hepatitis B virus); experiment: ELISA; scFv without HBsAg in solution, molar ratio fragment:antigen 1:0 (reference)
[9] = biological target: recombinant Hepatitis B virus surface antigen (HBsAg) (Hepatitis B virus); experiment: immunoaffinity column, scFv on Sepharose CL-4B; Expt. 4, crude semipurified HBsAg, 2 mg loaded
[10] = biological target: recombinant Hepatitis B virus surface antigen (HBsAg) (Hepatitis B virus); experiment: ELISA, plates coated with recombinant HBsAg 5 ug/ml; renatured scFv, not purified; detected with rabbit anti-Fab and Protein A-HRP
[11] = biological target: recombinant Hepatitis B virus surface antigen (HBsAg) (Hepatitis B virus); experiment: immunoaffinity column, scFv on Sepharose CL-4B; Expt. 1, pure HBsAg, 2 mg loaded
[12] = biological target: recombinant Hepatitis B virus surface antigen (HBsAg) (Hepatitis B virus); experiment: ELISA; scFv preincubated with HBsAg in solution, molar ratio fragment:antigen 1:0.14; inhibition of binding to coated HBsAg
[13] = biological target: recombinant Hepatitis B virus surface antigen (HBsAg) (Hepatitis B virus); experiment: ELISA; scFv preincubated with HBsAg in solution, molar ratio fragment:antigen 1:0.7; inhibition of binding to coated HBsAg
[14] = biological target: recombinant Hepatitis B virus surface antigen (HBsAg) (Hepatitis B virus); experiment: immunoaffinity column, scFv on Sepharose CL-4B; Expt. 6, crude semipurified HBsAg, 2 mg loaded

## anti-HBsAg scFv (recombinant single chain Fv antibody fragment, VH-linker-VL, from MAb CB-Hep.1, expressed in E. coli from pPACIB.1/scFv anti HBsAg)
[1]
  mg HBsAg eluted/ml gel (mg HBsAg eluted/ml gel): 0.26
[2]
  mg HBsAg eluted/ml gel (mg HBsAg eluted/ml gel): 0.51
[3]
  % inhibition: 95.1%
[4]
  Absorbance at 492 nm (absorbance at 492 nm): 0.68
[5]
  optimal binding concentration (saturation): 37 µg/mL
[6]
  Amount of eluted HBsAg: 0.126 mg
[7]
  mg HBsAg eluted/ml gel (mg HBsAg eluted/ml gel): 0.34
[8]
  % inhibition: 0%
[9]
  mg HBsAg eluted/ml gel (mg HBsAg eluted/ml gel): 0.45
[10]
  Absorbance at 492 nm (absorbance at 492 nm): 1.54
[11]
  mg HBsAg eluted/ml gel (mg HBsAg eluted/ml gel): 0.54
[12]
  % inhibition: 12.8%
[13]
  % inhibition: 76.4%
[14]
  mg HBsAg eluted/ml gel (mg HBsAg eluted/ml gel): 0.42
